Measurements as given in publication PMC3873559.

Molecular target: human factor Xa (plasma-derived) (human)
Assay: kinetic titration of prothrombinase (thrombin generation read with a chromogenic substrate); apparent KD; limiting fXa (15 pM), fV/fVa species varied (30 pM to 10 nM; 0 to 15 nM by the legend of Fig. 4), PCPS vesicles 20 μM, DAPA 3 μM, prothrombin 1.4 μM, Spectrozyme-TH 0.4 mM; fitted to a one binding site model

Sequence of human factor Xa (plasma-derived) (human) (P00742 whole entry): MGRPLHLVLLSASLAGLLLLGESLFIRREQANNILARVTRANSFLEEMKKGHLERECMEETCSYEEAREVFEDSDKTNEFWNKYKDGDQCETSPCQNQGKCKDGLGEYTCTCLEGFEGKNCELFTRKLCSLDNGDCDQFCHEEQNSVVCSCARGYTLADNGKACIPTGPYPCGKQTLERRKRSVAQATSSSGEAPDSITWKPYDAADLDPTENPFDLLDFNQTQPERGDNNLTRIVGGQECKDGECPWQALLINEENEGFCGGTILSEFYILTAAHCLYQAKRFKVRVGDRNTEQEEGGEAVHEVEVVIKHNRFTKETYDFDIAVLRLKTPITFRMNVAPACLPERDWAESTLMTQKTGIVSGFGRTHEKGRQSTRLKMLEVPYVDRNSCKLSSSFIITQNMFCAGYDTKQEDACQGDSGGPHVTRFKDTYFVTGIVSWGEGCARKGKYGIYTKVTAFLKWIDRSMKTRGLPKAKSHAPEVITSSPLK

| Substance | Kd [nM] |
| --- | --- |
| fVa purified from pooled fresh frozen normal plasma (fVa^plasma) (from UniProt P12259 29-737; P12259 1574-2224) (complex) | 0.51 |
| recombinant human fV with Arg1018 and Arg1545 mutated to glutamine following incubation with thrombin (fVa^RQQ) (from UniProt P12259 29-737; P12259 738-2224) (complex) | 0.92 |
| recombinant human fV with region 1000–1008 deleted and the thrombin activation cleavage sites (Arg709/Arg1018/Arg1545) mutated to glutamine (fV^ΔB9/Q3) (from UniProt P12259 29-2224) (natural protein) | 0.73 |
| wild type recombinant human fV incubated with thrombin (fVa^WT) (from UniProt P12259 29-737; P12259 1574-2224) (complex) | 0.28 |
